T1: AmRha (Aspergillus mulundensis, UniProt A0A3D8R006)
T1 construct: gene DSM5745_09107; full-length synthetic gene (2589 bp, 862 aa); native-like purification (ammonium sulphate, DEAE)
T1 sequence (A0A3D8R006 1-862): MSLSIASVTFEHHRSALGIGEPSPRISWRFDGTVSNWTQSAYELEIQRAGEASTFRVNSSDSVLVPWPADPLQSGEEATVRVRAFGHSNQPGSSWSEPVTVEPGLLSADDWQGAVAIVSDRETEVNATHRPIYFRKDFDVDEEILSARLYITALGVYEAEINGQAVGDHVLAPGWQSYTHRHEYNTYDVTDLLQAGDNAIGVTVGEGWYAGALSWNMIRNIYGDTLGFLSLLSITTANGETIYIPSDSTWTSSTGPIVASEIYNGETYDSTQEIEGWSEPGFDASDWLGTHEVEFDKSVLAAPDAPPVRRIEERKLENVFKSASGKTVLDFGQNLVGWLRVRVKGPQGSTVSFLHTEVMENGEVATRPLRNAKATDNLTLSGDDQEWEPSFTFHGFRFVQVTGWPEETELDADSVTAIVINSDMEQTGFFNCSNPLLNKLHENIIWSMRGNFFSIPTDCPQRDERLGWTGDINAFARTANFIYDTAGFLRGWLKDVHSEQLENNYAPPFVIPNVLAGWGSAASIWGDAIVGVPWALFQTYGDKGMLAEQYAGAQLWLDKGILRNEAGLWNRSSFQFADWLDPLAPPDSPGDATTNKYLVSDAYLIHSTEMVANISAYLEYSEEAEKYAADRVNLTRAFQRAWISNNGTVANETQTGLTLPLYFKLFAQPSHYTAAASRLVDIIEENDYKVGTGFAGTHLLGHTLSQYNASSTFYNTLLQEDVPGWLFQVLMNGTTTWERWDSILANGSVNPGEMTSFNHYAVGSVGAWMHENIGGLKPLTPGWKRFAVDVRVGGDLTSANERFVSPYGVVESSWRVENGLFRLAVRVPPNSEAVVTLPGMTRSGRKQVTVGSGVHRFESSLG

B1: AmRha (Aspergillus mulundensis) (protein)
chain: T1 sequence (A0A3D8R006 1-862)
notes: full-length synthetic gene (2589 bp, 862 aa); native-like purification (ammonium sulphate, DEAE)

Legend:
AmRha = target: T1, AmRha; experiment: residual activity on pNPR, […] nm; format: biochemical; conditions: read-out: remaining enzyme activity at 5 mM
purified protein [1] = substrate: COc1ccc(-c2oc3c(CC=C(C)C)c(O[C@@H]4O[C@H](CO)[C@@H](O)[C@H](O)[C@H]4O)cc(O)c3c(=O)c2O[C@@H]2O[C@@H](C)[C@H](O)[C@@H](O)[C@H]2O[C@@H]2O[C@@H](C)[C@H](O)[C@@H](O)[C@H]2O)cc1; experiment: purified protein; conditions: hydrolysis of terminal alpha-1,2-rhamnose to icariin; kinetic conditions not stated
purified protein [2] = substrate: C[C@@H]1O[C@@H](Oc2ccc([N+](=O)[O-])cc2)[C@H](O)[C@H](O)[C@H]1O; experiment: purified protein; format: biochemical, Aspergillus mulundensis; conditions: pH 5.5, 65 °C, 50 mM sodium phosphate

Row | Molecule | remaining activity at 5000 µM (AmRha) [%] | Km (purified protein [1]) [mM] | kcat (purified protein [1]) [s⁻¹] | Km (purified protein [2]) [mM] | kcat (purified protein [2]) [s⁻¹]
1 | C[C@@H]1OC(O)[C@H](O)[C@H](O)[C@H]1O (stereo partly drawn) [L-rhamnose] | 49.7 |  |  |  | 
2 | B1 |  | 6.96 | 37.11 | 0.30 | 900.34

Reference: PMC10311867 (Biotechnology for Biofuels and Bioproducts, 2023)
